Results published in patent US20210008207A1 (TECHNISCHE UNIVERSIT T M NCHEN, published 2021).

Experiments:
[1] = biological target: CEACAM7 on transfected CHO cells (human) (UniProt Q14002); test: flow cytometry; CHO transfectant 'CEACAM7' with HopQ as in Fig. 6 b; number in the panel = median; untransfected CHO with HopQ: 6 [cont.) c]
[2] = biological target: human CEACAM1 (hu-CEACAM1-4L) on stably transfected CHO cells (human) (UniProt P13688); test: flow cytometry; CHO transfectant 'CEACAM1' with HopQ as in Fig. 6 b; number in the panel = median; untransfected CHO with HopQ: 6 [cont.) c]
[3] = biological target: CEACAM3 on transfected CHO cells (human) (UniProt P40198); test: flow cytometry; CHO transfectant 'CEACAM3' with HopQ as in Fig. 6 b; number in the panel = median; untransfected CHO with HopQ: 6 [cont.) c]
Chain of CEACAM3 on transfected CHO cells (human) (P40198 35-252): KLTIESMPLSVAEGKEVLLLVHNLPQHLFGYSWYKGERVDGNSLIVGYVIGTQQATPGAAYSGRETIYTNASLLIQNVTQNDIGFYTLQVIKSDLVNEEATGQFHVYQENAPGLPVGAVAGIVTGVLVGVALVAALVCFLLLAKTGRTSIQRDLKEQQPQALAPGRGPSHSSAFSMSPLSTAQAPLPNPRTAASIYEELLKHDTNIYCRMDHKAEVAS

[4] = biological target: CEACAM8 on transfected CHO cells (human) (UniProt P31997); test: flow cytometry; CHO transfectant 'CEACAM8' with HopQ as in Fig. 6 b; number in the panel = median; untransfected CHO with HopQ: 6 [cont.) c]
Chain of CEACAM8 on transfected CHO cells (human) (P31997 35-320): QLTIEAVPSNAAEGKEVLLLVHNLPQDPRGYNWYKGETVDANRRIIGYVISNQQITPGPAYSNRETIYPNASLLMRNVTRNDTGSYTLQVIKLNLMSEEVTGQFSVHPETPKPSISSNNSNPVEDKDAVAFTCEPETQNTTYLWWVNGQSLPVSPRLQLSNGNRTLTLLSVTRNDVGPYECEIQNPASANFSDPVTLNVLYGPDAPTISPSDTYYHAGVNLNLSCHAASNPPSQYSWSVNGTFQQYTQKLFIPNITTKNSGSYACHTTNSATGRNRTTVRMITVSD

[5] = biological target: human CEACAM1 (hu-CEACAM1-4L) on stably transfected CHO cells (human) (UniProt P13688); test: flow cytometry; CHO-CEACAM1 cells with myc-His-tagged HopQ, anti c-myc mAb, FITC goat anti-mouse F(ab')2; thin line: control IgG; number in the panel = median
[6] = biological target: CEACAMs endogenously expressed on MKN45 gastric cancer cells (CEACAM1, CEACAM5 and CEACAM6); test: flow cytometry; MKN45 cells with myc-His-tagged HopQ, anti c-myc mAb, FITC goat anti-mouse F(ab')2; thin line: control IgG; number in the panel = median
[7] = biological target: CEACAM4 on transfected CHO cells (human) (UniProt O75871); test: flow cytometry; CHO transfectant 'CEACAM4' with HopQ as in Fig. 6 b; number in the panel = median; untransfected CHO with HopQ: 6 [cont.) c]
Chain of CEACAM4 on transfected CHO cells (human) (O75871 36-244): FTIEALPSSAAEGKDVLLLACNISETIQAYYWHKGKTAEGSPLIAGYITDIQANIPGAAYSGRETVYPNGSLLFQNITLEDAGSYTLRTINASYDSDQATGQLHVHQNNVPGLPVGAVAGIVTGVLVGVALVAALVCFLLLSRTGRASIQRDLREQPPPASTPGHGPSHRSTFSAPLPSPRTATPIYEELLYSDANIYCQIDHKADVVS

[8] = biological target: CEACAM5 on transfected CHO cells (human) (UniProt P06731); test: flow cytometry; CHO transfectant 'CEACAM5' with HopQ as in Fig. 6 b; number in the panel = median; untransfected CHO with HopQ: 6 [cont.) c]
[9] = biological target: CEACAMs endogenously expressed on AGS gastric cancer cells (CEACAM1, CEACAM5 and CEACAM6); test: flow cytometry; AGS cells with myc-His-tagged HopQ, anti c-myc mAb, FITC goat anti-mouse F(ab')2; thin line: control IgG; number in the panel = median
[10] = biological target: CEACAM6 on transfected CHO cells (human) (UniProt P40199); test: flow cytometry; CHO transfectant 'CEACAM6' with HopQ as in Fig. 6 b; number in the panel = median; untransfected CHO with HopQ: 6 [cont.) c]
[11] = biological target: CEACAMs endogenously expressed on AGS gastric cancer cells (CEACAM1, CEACAM5 and CEACAM6); test: cell-based or functional assay
[12] = biological target: human CEACAM1-Fc (extracellular domains N-A1-B1-A2 fused to a human heavy chain Fc-domain) (human) (UniProt P13688)
[13] = biological target: T1, recombinant human CEACAM5-Fc (Sino Biological Inc.) (human, UniProt P06731 35-685); test: pull-down of live bacteria with CEACAM-Fc; western blot and flow cytometry with α-hu-IgG-FITC [cont.) c]
T1 construct: also called hu-CEACAM5-Fc; not shown: Fc part of the bought fusion; not described
T1 sequence: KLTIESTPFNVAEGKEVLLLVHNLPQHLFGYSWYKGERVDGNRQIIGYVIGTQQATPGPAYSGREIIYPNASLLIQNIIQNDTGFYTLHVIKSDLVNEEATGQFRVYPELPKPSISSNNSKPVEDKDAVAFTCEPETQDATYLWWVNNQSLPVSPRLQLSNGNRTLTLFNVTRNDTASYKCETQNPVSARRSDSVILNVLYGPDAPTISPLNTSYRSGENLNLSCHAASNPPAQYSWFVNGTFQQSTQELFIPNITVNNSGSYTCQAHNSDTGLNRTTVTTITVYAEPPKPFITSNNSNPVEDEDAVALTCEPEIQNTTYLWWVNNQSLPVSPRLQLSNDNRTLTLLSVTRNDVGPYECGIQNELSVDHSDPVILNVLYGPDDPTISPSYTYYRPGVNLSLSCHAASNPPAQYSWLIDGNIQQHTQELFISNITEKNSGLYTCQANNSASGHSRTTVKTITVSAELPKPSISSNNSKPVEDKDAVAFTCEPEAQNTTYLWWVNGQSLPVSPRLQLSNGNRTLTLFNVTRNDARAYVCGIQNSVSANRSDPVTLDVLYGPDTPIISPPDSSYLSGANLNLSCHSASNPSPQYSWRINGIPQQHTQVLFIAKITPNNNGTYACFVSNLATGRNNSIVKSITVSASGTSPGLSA

[14] = biological target: T2, human CEACAM6-Fc (extracellular domains N-A-B fused to a human heavy chain Fc-domain) (human, UniProt P40199 35-320); test: as above
T2 construct: extracellular domain; Made in HEK293 cells; also called hu-CEACAM6-Fc; not shown: human heavy chain Fc-domain
T2 sequence: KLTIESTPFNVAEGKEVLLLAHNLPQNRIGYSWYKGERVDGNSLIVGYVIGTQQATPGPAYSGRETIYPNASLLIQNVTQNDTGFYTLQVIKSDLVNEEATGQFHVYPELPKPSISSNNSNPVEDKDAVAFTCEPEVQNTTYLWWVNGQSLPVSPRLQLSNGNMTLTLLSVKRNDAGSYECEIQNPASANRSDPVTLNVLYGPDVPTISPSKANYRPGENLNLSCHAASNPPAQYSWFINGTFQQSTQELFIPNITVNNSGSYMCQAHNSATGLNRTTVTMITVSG

[15] = biological target: T3, human CEACAM1-Fc (extracellular domains N-A1-B1-A2 fused to a human heavy chain Fc-domain) (human, UniProt P13688 35-428); test: as above
T3 construct: extracellular domain; Made in HEK293 cells; also called hu-CEACAM1-Fc; not shown: human heavy chain Fc-domain
T3 sequence: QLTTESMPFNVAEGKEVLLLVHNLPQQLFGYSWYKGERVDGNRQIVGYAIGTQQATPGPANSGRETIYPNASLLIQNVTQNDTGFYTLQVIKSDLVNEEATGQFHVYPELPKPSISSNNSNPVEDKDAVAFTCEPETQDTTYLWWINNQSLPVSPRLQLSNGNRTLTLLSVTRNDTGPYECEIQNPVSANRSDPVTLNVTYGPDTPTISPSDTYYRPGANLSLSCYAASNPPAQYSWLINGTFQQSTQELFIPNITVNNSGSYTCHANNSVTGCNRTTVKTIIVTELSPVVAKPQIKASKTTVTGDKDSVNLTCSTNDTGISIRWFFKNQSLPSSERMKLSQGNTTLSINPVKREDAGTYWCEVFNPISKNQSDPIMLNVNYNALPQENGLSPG

Chain of CEACAM7 on transfected CHO cells (human) (Q14002 36-242): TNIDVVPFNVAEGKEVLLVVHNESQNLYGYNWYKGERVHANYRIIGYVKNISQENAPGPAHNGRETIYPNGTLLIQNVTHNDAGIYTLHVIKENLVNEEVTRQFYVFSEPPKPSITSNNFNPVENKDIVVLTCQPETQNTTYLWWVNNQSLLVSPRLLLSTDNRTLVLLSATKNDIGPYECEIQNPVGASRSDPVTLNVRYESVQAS

## H. pylori strain P12 derived, myc and 6x His-tagged recombinant HopQ
[1]
  median relative fluorescence (FL1-H): 6
[2]
  median relative fluorescence (FL1-H): 63
[3]
  median relative fluorescence (FL1-H): 18
[4]
  median relative fluorescence (FL1-H): 6
[5]
  median relative fluorescence (FL1-H): 18
[6]
  median relative fluorescence (FL1-H): 155
[7]
  median relative fluorescence (FL1-H): 6
[8]
  median relative fluorescence (FL1-H): 136
[9]
  median relative fluorescence (FL1-H): 32
[10]
  median relative fluorescence (FL1-H): 12

## HopQ insertion domain (HopQ-ID) representing peptide (aa 190-218), HA-tagged, synthetic
[11]
  P12-induced phosphorylation of CagA, concentration needed against HopQ^AD (fold higher concentration than HopQ^AD): 10 to 20

## Outer membrane protein babA
[12]
  Score (Sequest): 8

## Outer membrane protein hopC
[12]
  Score (Sequest): 14.4

## Outer membrane protein hopZ
[12]
  Score (Sequest): 31.7

## Outer membrane protein sabA
[12]
  Score (Sequest): 6.66

## Outer membrane protein sabB
[12]
  Score (Sequest): 23.4

B1: HopQ of H. pylori strain P12, on live wild-type bacteria (compared with the isogenic P12ΔhopQ mutant) (other)
chain: AEDNGVFLSVGYQIGEAVQKVKNADKVQKLSDTYEQLSRLLTNDNGTNSKTSAQAINQAVNNLNERAKTLAGGTTNSPAYQATLLALRSVLGLWNSMGYAVICGGYTKSPGENNQKNFHYTDENGNGTTINCGGSTNSNGTHSSNGTNTLKADKNVSLSIEQYEKIHESYQILSKALKQAGLAPLNSKGEKLEAHVTTSKYQQDSQTKTTTSVIDTTNDAQNLLTQAQTIVNTLKDYCPMLIAKSSSGSGGGAATNTPSWQTAGGGKNSCETFGAEFSAASDMINNAQKIVQETQQLSANQPKNITQPHNLNLNTPSSLTALAQKMLKNAQSQAEILKLANQVESDFNKLSSGHLKDYIGKCDMSAISSTNMTMQSQKNNWGNGCAGVEETLTSLKTSAADFNNQTPQINQAQNLANTLIQELGNNPFRNMGMIASSTTNNGALNGLGVQVGYKQFFGEKKRWGLRYYGFFDYNHAYIKSNFFNSASDVWTYGVGSDLLFNFINDKNTNFLGKNNQISFGLFGGIALAGTSWLNSQFVNLKTISNVYSAKVNTANFQFLFNLGLRTNLARPKKKDSHHAAQHGIELGVKIPTINTNYYSFLDTKLEYRRLYSVYLNYVFAY
[13]
  binding result: binds
[14]
  binding result: binds
[15]
  binding result: binds
